Source: patent publication US20110152199A1 (ONCOTHERAPY SCIENCE, published 2011)

Biological target: T1, HLA-A2 (HLA-A*0201) on cells (human, UniProt P04439 25-302 at identity 0.94))
T1 MHC heavy: not shown
Experiment: cell-based or functional assay

B1: CDCA1 351-359 (No. 4) peptide (peptide)
peptide: KLATAQFKI
Question: With B1 as the binder, how does the “IFN-γ production by healthy donor 1-derived CTLs against T2 cells pulsed with the peptide at various concentrations (E/T ratio 5)” value read?
Answer: Its value is ≥ 0.2 µg/mL.
